Assay results reported in paper PMC8221060, “Interplay between chromophore binding and domain assembly by the B12-dependent photoreceptor protein, CarH†” (Chemical Science, 2021).

Key:
[1] = biological target: TtCarH G192Q variant (Thermus thermophilus) (UniProt Q53W62); experiment: native MS; native ion mobility mass spectrometry; G192Q without AdoCbl; monomer to dimer
[2] = biological target: TtCarH G192Q variant (Thermus thermophilus) (UniProt Q53W62); experiment: native MS; native ion mobility mass spectrometry; G192Q with increasing molar ratios of AdoCbl; monomer to dimer
[3] = biological target: TtCarH G192Q variant (Thermus thermophilus) (UniProt Q53W62); experiment: stopped-flow fluorescence; quenching of protein emission (excitation at 280 nm) after rapid mixing of apo-protein with AdoCbl at saturating concentrations (≥10×); kapp of the second phase against protein concentration, fit linearly; monomer to dimer step taken as rate-limiting
[4] = biological target: the molecule itself; experiment: native MS; native ion mobility mass spectrometry; WT TtCarH, 10 μM apo-protein, no B12 added; monomer to dimer
[5] = biological target: the molecule itself; experiment: native MS; native ion mobility mass spectrometry; WT TtCarH, 10 μM apo-protein, with AdoCbl from sub-stoichiometric quantities to a two-fold excess
[6] = biological target: the molecule itself; experiment: stopped-flow fluorescence; quenching of protein emission (excitation at 280 nm) after rapid mixing of apo-protein with AdoCbl at saturating concentrations (≥10×); kapp of the second phase against protein concentration, fit linearly; monomer to dimer step taken as rate-limiting

## TtCarH G192Q variant (from UniProt Q53W62 1-285) (natural protein)
[1]
  stoichiometry N: 2
[2]
  stoichiometry N: 2
[3]
  kon: 45100 M⁻¹ s⁻¹

B1: CarH from Thermus thermophilus (TtCarH), wild type (natural protein)
chain: MTSSGVYTIAEVEAMTGLSAEVLRQWERRYGFPKPRRTPGGHRLYSAEDVEALKTIKRWLEEGATPKAAIRRYLAQEVRPEDLGTGLLEALLRGDLAGAEALFRRGLRFWGPEGVLEHLLLPVLREVGEAWHRGEIGVAEEHLASTFLRARLQELLDLAGFPPGPPVLVTTPPGERHEIGAMLAAYHLRRKGVPALYLGPDTPLPDLRALARRLGAGTVVLSAVLSEPLRALPDGALKDLAPRVFLGGQGAGPEEARRLGAEYMEDLKGLAEALWLPRGPEKEAI
notes: CarH, B12-dependent photoreceptor and transcriptional regulator of Thermus thermophilus; Written as the monomer, which associates with itself to dimers and tetramers; The cofactor (AdoCbl or MeCbl, small molecules) was added or left out as told in each assay; also called WT TtCarH; WT
[4]
  stoichiometry N: 2
[5]
  stoichiometry N: 4
[6]
  kon: 50400 ± 2300 M⁻¹ s⁻¹
